Source: PMC9277520
One block for each substance: values may come before it.

Assays:
Experiment in all cases: SEC; BV-bound protein on a Superdex 200 10/300 GL column, absorbance at 280, 380 and 630 nm, calibrated with a standard protein mixture; self-association (monomer or tetramer)
[1] = target: Sandercyanin F55A variant (Stizostedion vitreum (Canadian walleye))
[2] = target: Sandercyanin F106A variant (Stizostedion vitreum (Canadian walleye))
[3] = target: Sandercyanin H108A variant (Stizostedion vitreum (Canadian walleye))
[4] = target: Sandercyanin Y142A variant (Stizostedion vitreum (Canadian walleye))
[5] = target: wild-type Sandercyanin (SFP) (Stizostedion vitreum (Canadian walleye))

- stoichiometry N [1]: 4
Substance: Sandercyanin F55A variant (natural protein)

- stoichiometry N [2]: 4
Substance: Sandercyanin F106A variant (natural protein)

- stoichiometry N [3]: 4
Substance: Sandercyanin H108A variant (natural protein)

- stoichiometry N [4]: 4
Substance: Sandercyanin Y142A variant (natural protein)

- stoichiometry N [5]: 4
Substance: wild-type Sandercyanin (SFP) (natural protein)
